Assay [1] has as its target T1, human CLEC-1A expressed on the cell membrane (human, UniProt Q8NC01 1-280).
T1 construct: Endogenous on human U266 myeloma cells, on monocyte-derived TGFb-DC and macrophages; on CHO cells after transduction with a Clec-1 expressing lentivirus; also called U266 CLEC1; CLEC-1A on U266 cells
T1 sequence: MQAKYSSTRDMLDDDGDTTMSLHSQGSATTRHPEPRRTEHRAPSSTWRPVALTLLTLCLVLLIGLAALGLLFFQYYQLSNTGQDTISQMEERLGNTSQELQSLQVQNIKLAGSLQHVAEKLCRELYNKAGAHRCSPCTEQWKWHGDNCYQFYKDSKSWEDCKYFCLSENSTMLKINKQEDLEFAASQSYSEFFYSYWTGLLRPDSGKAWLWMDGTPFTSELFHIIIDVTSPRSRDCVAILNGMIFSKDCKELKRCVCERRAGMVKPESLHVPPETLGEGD
As to the kind of experiment: flow cytometry on U266 cells; printed as ED50, read-out Mean.

Assay [2] concerns the target T2, Fc-CLEC1 labelled with Alexa Fluor 488 (human, Alexa Fluor 488 label (sites not given)).
T2 construct: also called Fc-CLEC1-A488; Alexa488-Fc-Clec-1
T2 chain: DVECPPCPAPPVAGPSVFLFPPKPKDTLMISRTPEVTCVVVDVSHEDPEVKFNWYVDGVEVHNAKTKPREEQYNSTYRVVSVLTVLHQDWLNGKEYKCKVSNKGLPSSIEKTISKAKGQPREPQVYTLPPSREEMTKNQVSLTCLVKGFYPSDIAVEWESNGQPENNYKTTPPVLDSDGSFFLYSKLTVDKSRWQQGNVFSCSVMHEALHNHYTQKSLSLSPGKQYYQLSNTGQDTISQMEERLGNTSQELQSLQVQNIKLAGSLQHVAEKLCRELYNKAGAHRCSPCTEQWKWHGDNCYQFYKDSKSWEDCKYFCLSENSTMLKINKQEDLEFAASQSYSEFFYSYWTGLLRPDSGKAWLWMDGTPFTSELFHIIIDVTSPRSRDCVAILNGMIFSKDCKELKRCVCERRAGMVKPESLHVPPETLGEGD
As to the kind of experiment: FACS competition: blocks Fc-CLEC1-A488 (10 nM) binding to CLEC-1 ligand on permeabilised Raji cells; read-out % + cells. As for the experimental part: (§1) Methods. To measure competition on permeabilised Raji (CytoFix/cytoperm kit, BD Biosciences) which expressed CLEC1 ligand, Fc-CLEC1-labelled A488 which bound specifically to permeabilised Raji was used. To measure competition, Fc-CLEC1 labelled A488 at 10 nM or 20 nM was mixed with mouse anti-hCLEC1 at different concentrations for 15 min at RT then added on these cells for 30 min at 4° C. […] To measure competition on PMBC, we used human PBMC pre-treated by UV for 18 h to obtain apoptotic PBMC, which expressed CLEC1 ligand. Fc-CLEC1-labelled A488 bound specifically apoptotic UV-treated PBMC. To measure competition, Fc-CLEC1 labelled A488 at 10 nM was mixed with mouse anti-hCLEC1 at different concentrations for 15 min at RT then added on these cells for 30 min at 4° C.

Assay [3] addresses T3, recombinant human CLEC-1 protein with His Tag (#1704-CL R&D Systems) (human, UniProt Q8NC01 74-280).
T3 construct: Bought protein; also called His-CLEC1; His Clec-1; not shown: His tag
T3 sequence: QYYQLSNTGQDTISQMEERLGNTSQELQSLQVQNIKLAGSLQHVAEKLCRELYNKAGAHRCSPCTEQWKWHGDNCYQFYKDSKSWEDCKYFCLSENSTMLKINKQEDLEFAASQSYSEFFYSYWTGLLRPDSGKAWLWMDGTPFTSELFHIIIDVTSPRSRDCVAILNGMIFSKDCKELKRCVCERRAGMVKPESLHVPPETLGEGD
Put plainly: ELISA on immobilised human His-CLEC1 (column hm His Clec); given as ED50. As for the experimental part:
Method: The binding activity of the anti-hCLEC1 antibodies was assessed by ELISA (Enzyme-linked immunosorbent assay). […] A second ELISA assays was performed, like above, with immobilization of CLEC1-Fc (OSE Immunotherapeutics) at 2 μg/ml. A third ELISA assays was performed to see the cross-reactivity with mouse CLEC1. Like above, ELISA was made with immobilization of mouse Fc-CLEC1 (OSE Immunotherapeutics) at 2 μg/ml in carbonate buffer instead of His-Clec. Purified antibodies were added at different concentrations to measure binding. […] Control antibody is a commercial anti-CLEC-1A antibody.
(An ELISA detects its analyte on a solid surface through an enzyme-linked reagent.)

Assay [4] addresses T2, Fc-CLEC1 labelled with Alexa Fluor 488. Put plainly: FACS competition: blocks Fc-CLEC1-A488 (20 nM) binding to CLEC-1 ligand on permeabilised Raji cells; read-out % + cells. As for the experimental part:
as §1

Assay [5] concerns the target T3, recombinant human CLEC-1 protein with …. As to the kind of experiment: Blitz biolayer interferometry, His-CLEC1 on Ni-NTA biosensor, antibody at 20 ug/mL. The protocol: (§2) Analysis was performed with a BLItz System (Fortébio, #C22-2 No 61010-1, Molecular Devices, San José, USA).
(§3) The affinity of the anti-hCLEC1 antibodies, was measured with Blitz system (Forté Bio, C22-2 No 61010-1).
A general note: BLI is a label-free optical method that tracks binding on a fibre tip over time.

In assay [6] the target is T1, human CLEC-1A expressed on the cell …. Put plainly: flow cytometry on U266 cells; printed as ED50, read-out % + cells. A general note: Flow cytometry measures light scatter and fluorescence of single cells or particles in a stream.
Assay [7] deals with T2, Fc-CLEC1 labelled with Alexa Fluor 488. As to the kind of experiment: FACS competition: blocks Fc-CLEC1-A488 (20 nM) binding to CLEC-1 ligand on permeabilised Raji cells; read-out Mean. The protocol: as §1
For assay [8] the target is unchanged. Put plainly: FACS competition: blocks Fc-CLEC1-A488 (10 nM) binding to CLEC-1 ligand on UV-treated PBMC; read-out % + cells. As for the experimental part:
as §1

The target is the same in assay [9]. Put plainly: FACS competition: blocks Fc-CLEC1-A488 (10 nM) binding to CLEC-1 ligand on permeabilised Raji cells; read-out Mean. The protocol:
as §1

The target is the same in assay [10]. Put plainly: FACS competition: blocks Fc-CLEC1-A488 (10 nM) binding to CLEC-1 ligand on UV-treated PBMC; read-out Mean. The protocol:
as §1

Assay [11] concerns the target T3, recombinant human CLEC-1 protein with …. Put plainly: BLI (Blitz), CLEC1-His on Ni-NTA biosensor, antibody at 20 ug/mL; murine clone, FIG. 16. As for the experimental part: as §2, §3

B1: murine anti-hCLEC1 antibody 14H9-F3 (antibody, V domains shown)
VH: QVQLKESGPGLVAPSQSLSITCTISGFSLTTYGIHWVRQPPGKGLEWLVVIWSDGSTIYNSALKSRLSISKDNSKSQVFLKMNSLQTDDTAIYYCARHGGYYNYFDYWGQGTTLTVSS
VL: DIQMNQSPSSLSASLGDTITITCHASQNINVWLSWYQQKPGNIPKLLIYKASNLHTGVPSRFSGSGSGTTFTLTIDSLQPEDIATYYCQQGQSYWTFGGGTKLEIK
notes: Mouse hybridoma antibody
For the molecule B1, the EC50 (commonly the concentration at which the effect is half-maximal) in [1] is 0.072 µg/mL; in [3] it was 0.157 µg/mL; in assay [6], 0.0065 µg/mL. Also, the IC50 (as a rule, the concentration that inhibits the measured activity by half) came out at 3.2 µg/mL in assay [2]; 22 µg/mL in [4]; 2.5 µg/mL in [7]; 0.031 µg/mL in assay [8]; 0.84 µg/mL in assay [9]; 3.1 µg/mL in assay [10]. Also, the Kd (as a rule, the free concentration of one partner at which half of the binding sites on the other are occupied at equilibrium, for simple one-to-one binding) in assay [5] was found to be 8.24 nM. Moreover, in assay [5], the koff – broadly, the first-order rate constant of dissociation – was 0.00074 s⁻¹. In assay [5], the kon (in general, the second-order rate constant of association) was 89800 M⁻¹ s⁻¹.

B2: murine anti-hCLEC1 antibody 21B1-E10 (antibody, V domains shown)
VH: QVQLKESGPGLVAPSQSLSITCTISGFSLTTYGIHWVRQPPGKGLEWLVVIWSDGSTIYNSALKSRLSISKDNSKSQVFLKMNSLQTDDTAIYYCARHGGYYNYFDYWGQGTTLTVSS
VL: DIVMSQSPSSLAVSVGEKVTLTCKSTQNLFYSTNQKNYLAWYQQKPGQSPKLLIYWASTRESGVPDRFTGSGSGTDFTLTISSVKAEDPAVYYCQQYYTYPWTFGGGTKLEIK
notes: tied to the 21B1 variable domains by name
Take B2: in assay [11], the Kd is about 1 nM.

B3: murine anti-hCLEC1 antibody 5D1-A5 (antibody, V domains shown)
VH: QVQLKESGPGLVAPSQSLSITCTISGFSLTSYGVHWVRQPPGKGLEWLVVIWSDGSTIYNSALKSRLSISKDNSKSQVFLKMNSLQTDDTAMYYCARHGGYYNYFDYWGQGTTLTVSS
VL: DIQMNQSPSSLSASLGDTITITCHASQNINVWLSWYQQKPGNIPKLLIYKASNLHTGVPSRFSGSGSGTGFTLTISSLQPEDIATYYCQQGQSYWTFGGGTKLEIK
notes: Mouse hybridoma antibody
Consider B3, for which the EC50 stood at 0.12 µg/mL in assay [1], 1.31 µg/mL in assay [3] and 0.0064 µg/mL in [6]. The IC50 is 12 µg/mL in [2]; 0.21 µg/mL in [4]; 3.1 µg/mL in [7]; 0.13 µg/mL in [8]; 4.4 µg/mL in assay [9]; 3.8 µg/mL in assay [10]. In addition, in [5], the Kd stood at 16.1 nM. For the same molecule, the koff in [5] was found to be 0.00124 s⁻¹. Moreover, the kon in assay [5] stood at 76600 M⁻¹ s⁻¹.

B4: murine anti-hCLEC1 antibody 6C5-A4 (antibody, V domains shown)
VH: QVQLQQSGPELVKPGASVKMSCKASGYTFTDYVISWVKQKTGQGLEWIGEIYPGSGNTYYNEKFKGKATLTADKSSSTAYIHLSSLTSEDSAVYFCAGGGSSHFDYWGQGTTLTVSS
VL: not shown
notes: Mouse hybridoma antibody
Consider B4, for which the figures for the EC50 in assay [1], in assay [3] and in [6] were 0.17 µg/mL, 0.012 µg/mL and 0.051 µg/mL, respectively. The IC50 came to 19 µg/mL in assay [2]; 1.5 µg/mL in [4]; 1.7 µg/mL in assay [7]; 2 µg/mL in assay [8]; 1.7 µg/mL in [9]; 2.2 µg/mL in assay [10]. For the same molecule, in [5], the Kd was determined as 14.7 nM. The koff in assay [5] is 0.000934 s⁻¹. In addition, the kon in assay [5] stood at 63400 M⁻¹ s⁻¹.

B5: murine anti-hCLEC1 antibody 15E3-G3 (antibody, V domains shown)
VH: QVQLQQSGPELVKPGASVKMSCKASGFTFTDYVIAWVKVRTGQGLEWIGEIYPGSGSIYYNEKFKGKATLTADKSSNTAYMQLSSLTSEDSAVYFCASSTVVAFDYWGQGTTLTVSS
VL: EIVLTQSPTTLAASPGEKIIITCSDSSSISSNYLHWYQQKPGFSPKLLIYGTSNLASGVPARFSGSGSGTTYSLTIGTMEAEDVATYYCQQGSSIPRTFGGGTKLEIK
notes: Mouse hybridoma antibody
As to B5, the EC50 in [1] is 0.59 µg/mL; in assay [3], 0.0466 µg/mL; in assay [6] it was 0.074 µg/mL. The IC50 in assay [2] was 7.7 µg/mL; in assay [4], 14 µg/mL; in assay [7] it was 3 µg/mL; in assay [8] it was 0.69 µg/mL; in assay [9] it was 1.3 µg/mL; in [10] it was 4.5 µg/mL. Also, in [5], the Kd came to 14 nM. Besides, in [5], the koff turned out to be 0.00101 s⁻¹. Further, the kon in [5] was determined as 72200 M⁻¹ s⁻¹.

B6: murine anti-hCLEC1 antibody 10F4-H2 (antibody, V domains shown)
VH: QVQLQQSGTELARPGASVKMSCKASGYIFTDYTIHWVKQRPGQGLEWVGYINPSSGYTNYNQKFKAKATLTADKSSSTAYMQLSSLTSEDSAVYYCTPMFRRSYFDYWGQGTTLTVSS
VL: DAVMTQTPLSLPVSLGDQASISCRSSQSLENSNGNTYLNWYLQKPGQSPQLLIYRVSNRFSGVLDRFSGSGSGTDFTLKISRVEAEDLGVYFCLQVTHVPYTFGGGTKLEIK
notes: Mouse hybridoma antibody
B6: the EC50 is 0.22 µg/mL in assay [1], 0.0128 µg/mL in [3] and 0.034 µg/mL in assay [6]. Further, the IC50 came out at 11 µg/mL in assay [2]; 0.82 µg/mL in assay [4]; 2.5 µg/mL in assay [7]; 0.79 µg/mL in assay [8]; 2.1 µg/mL in [9]; 2.8 µg/mL in assay [10]. In assay [5], the Kd worked out at 5.72 nM. Also, in assay [5], the koff is 0.000621 s⁻¹. The kon in assay [5] came out at 109000 M⁻¹ s⁻¹.

The record behind these values is patent US20230331852A1 (OSE IMMUNOTHERAPEUTICS, published 2023).
